± gives the standard deviation.

A short description of the data set: protein stability index of a GFP-peptide fusion (GPS, HEK-293T) (PSI 1-6); higher = more stable.
Where [1] appears, read: treatment: DMSO, c terminus: a fixed tail appended.
Setting [2] is: treatment: MLN4924 1 uM, 8 h, c terminus: a fixed tail appended.
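Further: 24-mer peptide tiles fused after GFP, lentivirally expressed, FACS-sorted into six equal bins by GFP/DsRed ratio, decoded by Illumina sequencing, PSI is the read-weighted mean bin number.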

FNNGAHMSLLPDKKTVHYYAELGQ [PLK2]: the protein stability index runs as follows: under setting [1], 2.92 ± 0.34; under setting [2], 2.66 ± 0.25. The corresponding values for FPGVVARPIGEFRSNADYQYQLLR [CNOT7] are 3.05 ± 0.3 and 2.97 ± 0.2.

Turning to FQGSQGRAYLFNSVVNVGCGPAEE [YPEL3], the protein stability index is, setting by setting: under setting [1], 2.57 ± 0.27; under setting [2], 3.22 ± 0.1. The corresponding values for FRLTTLLMSGCSSELKNRMEYALN [PLK2] are 2.46 ± 0.53 and 2.35 ± 0.47. For FRQRCLERMRNSRDRLLNRYRQAG [RPAIN] the same measures were 3.15 ± 0.12 and 3.2 ± 0.15. On to FRVFHCTQYVRHSSDPFYTPEPDT [TPH1], for which the protein stability index is, setting by setting: under setting [1], 2.15 ± 0.19; under setting [2], 2.27 ± 0.35. For the sequence FRVNCYPGIDIREDLAQKLNLEED [HESX1], the protein stability index by setting is: under setting [1], 3.52 ± 0.34; under setting [2], 3.69 ± 0.35. On to FRVTLWVHPFVNYNSSRFGEGVER [MYORG], for which the protein stability index came to 2.77 ± 0.89 under setting [1] and 2.62 ± 0.41 under setting [2]. For FSGSLEPVACGSVLSEGSPLTEQE [SRPK2] the same measures were 5.23 ± 0.17 and 5.46 ± 0.16. Consider FSLKQEETLDYGKNYNYGMHYCAV [NEUROD6], for which the protein stability index turned out to be 2.4 ± 0.18 under setting [1] and 2.07 ± 0.34 under setting [2]. The corresponding values for FSTQYRCFSVSMLAGPNDRSDVEK [UFD1] are 2.68 ± 0.39 and 3.01 ± 0.57.

FSVLMEKLCKKGLAATTSMAYAKL [FANCE] yielded a protein stability index under setting [1] of 3.19 ± 0.73 and a protein stability index under setting [2] of 2.75 ± 0.56. The corresponding values for FTKETTQKNFNNLYGTKGNYTSRV [TRIM29] are 2.26 ± 0.42 and 2.61 ± 0.27. For FVAGGISGTVAAVLTLPFDVVKTQ [SLC25A39] the same measures were 2.95 ± 0.63 and 2.76 ± 0.84.

For the sequence FVKYLIRPQPWLEKEIEEATKKLG [FUT8], the protein stability index under setting [1] turned out to be 2.31 ± 0.29 and the protein stability index under setting [2] was 2.47 ± 0.17. With FWSVMFFLMLINLGLGSMIGTMAG [SLC6A17], the protein stability index reads like this: under setting [1], 3.2 ± 0.55; under setting [2], 3.49 ± 0.57. For FYFENLWSRNSKPVHTTILNPHIH [CAMK2A] the same measures were 2.33 ± 0.51 and 2.5 ± 0.45. As to GASSCDGCKGFFRRSVRKNHMYSC [HNF4A], the protein stability index reads like this: under setting [1], 2.36 ± 0.22; under setting [2], 2.62 ± 0.26. The corresponding values for GAVAPMDFTTAAEDQPINLCDKLP [NOL4L] are 4.7 ± 0.1 and 4.77 ± 0.34. GAVFNGITLLILAELLIFSVPIVY [RTN3]: the protein stability index came out at 3.33 ± 0.037 under setting [1] and 2.9 ± 0.39 under setting [2]. The corresponding values for GCECEDGPDGQEMDPPNPEEVKTP [GAGE1] are 5.48 ± 0.25 and 5.81 ± 0.14. GCIAAENCIGIRDFALHYCLHHVH [GAN]: the protein stability index was determined as 2.72 ± 0.25 under setting [1] and 2.53 ± 0.33 under setting [2].

For the sequence GCKVPQEALLKLLAGLTRPDVRPP [SEPHS2], the protein stability index came to 2.28 ± 0.33 under setting [1] and 2.03 ± 0.29 under setting [2]. Regarding GCTGDEAESRGHSKGWGRNYASII [MYCL], the protein stability index under setting [1] is 3.1 ± 0.13 and the protein stability index under setting [2] stood at 3.2 ± 0.17. For GDSHYEIEIVHISTVQILTEGFPP [ZFYVE21], the protein stability index is, setting by setting: under setting [1], 2.71 ± 0.8; under setting [2], 2.85 ± 0.78. GDVLHAHLDIWKSAAWMKERTSPG [SPDEF] yielded a protein stability index under setting [1] of 2.92 ± 0.48 and a protein stability index under setting [2] of 3.06 ± 0.46. For GEASYSTIAPTLIADLFVADQRSR [SPNS1], the protein stability index is 3.21 ± 0.39 under setting [1] and 3.29 ± 0.6 under setting [2]. For GEKEVEALKKSADWVSDWSSRPEN [BNIP3L] the same measures were 4.78 ± 0.27 and 4.88 ± 0.39. Regarding GELVLATAISSFTRHVFTCGRRGI [TLE6], the protein stability index was found to be 2.37 ± 0.31 under setting [1] and 2.52 ± 0.52 under setting [2]. The corresponding values for GEREPFAETDEHTGANTKKPEDTA [FAM9B] are 5.46 ± 0.22 and 5.54 ± 0.52.

With GFTNKQLQSGQEYVFFVLAVMEHA [PTPRD], the protein stability index is, setting by setting: under setting [1], 2.95 ± 0.76; under setting [2], 2.39 ± 0.79. On to GGEAAHHTRSPYSTFYPPYHSPEL [NEUROD6], for which the protein stability index stood at 3.38 ± 0.2 under setting [1] and 3.58 ± 0.12 under setting [2]. The sequence GGGSGSAPGPSRIADYLLLPLAER [TRIB1] gave a protein stability index under setting [1] of 3.62 ± 0.48. For GHEEMVALLLGQGANINAQTEETQ [ANKRD17], the protein stability index under setting [1] is 4.81 ± 0.28 and the protein stability index under setting [2] stood at 4.96 ± 0.19. The corresponding values for GHNDWVMDVAISNNKKWILSASKD [WDR88] are 3.19 ± 0.33 and 3.22 ± 0.59.

The sequence GHNSPLYKRQEESGAAASLNVDAA [CHIT1] yielded a protein stability index under setting [1] of 5.19 ± 0.19 and a protein stability index under setting [2] of 5.11 ± 0.22. Turning to GIQLLIVEYKDIASIHWDWKIALL [SLC35F2], the protein stability index worked out at 2.58 ± 0.61 under setting [1] and 2.69 ± 0.78 under setting [2]. With GKKYNWSCDDLMGGGGLHSVGTYI [GFOD1], the protein stability index under setting [1] came to 2.13 ± 0.35 and the protein stability index under setting [2] was found to be 2.33 ± 0.29. For GKSILLFGGAAAVAILAVAIGVAL [BCL2L13] the same measures were 2.98 ± 0.057 and 2.87 ± 0.3. Turning to GKVKLQQNPGKFDELDMSPGDPKW [TBC1D10A], the protein stability index was 4.51 ± 0.32 under setting [1] and 4.83 ± 0.23 under setting [2]. The corresponding values for GLELALACDIRVAASSAKMGLVET [AUH] are 2.37 ± 0.77 and 2.34 ± 0.18.

For the sequence GLHVQHMGTSHGITRPSPRRSNSP [CCDC6], the protein stability index by setting is: under setting [1], 4.51 ± 0.17; under setting [2], 4.57 ± 0.082. Take GLSAEDGVWAVIISHQQCWASTSP [TRIM15]: the protein stability index reads like this: under setting [1], 2.88 ± 0.51; under setting [2], 2.39 ± 0.73. Regarding GLSPSIDTLDHIRALDRLQEVPHE [PPP2CA], the protein stability index was determined as 4.91 ± 0.22 under setting [1] and 4.87 ± 0.14 under setting [2]. Regarding GMSTIRPNPGFSMLDFLSERPWIK [APMAP], the protein stability index turned out to be 2.62 ± 0.34 under setting [1] and 2.76 ± 0.24 under setting [2].

With GNDTSPSEGTNLNAPNSLGVSALC [HNF4A], the protein stability index is, setting by setting: under setting [1], 4.65 ± 0.18; under setting [2], 4.76 ± 0.15. For GPAGPYLLSKKGALQSRAAQRHRG [PLEKHN1] the same measures were 4.16 ± 0.48 and 3.98 ± 0.21. The corresponding values for GPDVLETDGLQEVPLCSCRMETPK [EHMT1] are 4.16 ± 0.43 and 4.29 ± 0.29. The corresponding values for GPFDLMSRRVIAANNRILAERIAK [IMPA1] are 2.54 ± 0.39 and 3.46 ± 0.59. Take GPHTISNQNNYRLLSCGKILTGCK [ACSBG2]: the protein stability index under setting [1] was 3.21 ± 0.13 and the protein stability index under setting [2] came to 2.84 ± 0.62. For the sequence GPLGDQLHAQLRDLTSSSSDELSW [ELF3], the protein stability index by setting is: under setting [1], 4.04 ± 0.047; under setting [2], 4.18 ± 0.29.

For GPPVGPLSLGLATVDIQNPDITSS [WAS], the protein stability index under setting [1] amounted to 4.68 ± 0.23 and the protein stability index under setting [2] was 4.39 ± 0.24. The corresponding values for GPQLEGEKDWGLEGYVWRGSQLED [ZSWIM9] are 4.52 ± 0.23 and 4.45 ± 0.28. Turning to GPWLEWEIMLQYCFPRLDINVSKG [PRIM1], the protein stability index runs as follows: under setting [1], 2.4 ± 0.19; under setting [2], 2.88 ± 0.94.

As for GREYPDAQGFAADVRLMFSNCYKY [BRD3], the protein stability index came out at 2.38 ± 0.21 under setting [1] and 2.59 ± 0.29 under setting [2].

GRIACANVLSDLYAMGITECDNML [SEPHS2]: the protein stability index runs as follows: under setting [1], 2.4 ± 0.41; under setting [2], 2.43 ± 0.32. Regarding GRQLEKVPEKRDSGMTEVERTYSA [SPATS1], the protein stability index runs as follows: under setting [1], 5.22 ± 0.3; under setting [2], 5.24 ± 0.4. Take GRREGCDICAGKAGCPIVEEPLG [RPS21]: the protein stability index by setting is: (treatment: DMSO, c terminus: native) 4.03 ± 0.13; (treatment: MLN4924 1 uM, 8 h, c terminus: native) 4.33 ± 0.3. As to GRSNAPITAPTEVEVMDETNCQKV [CSNK1G3], the protein stability index under setting [1] turned out to be 5.55 ± 0.15 and the protein stability index under setting [2] turned out to be 5.59 ± 0.13.

In the case of GRYAYVRGGGDPWTNGSGLALCQR [MCOLN1], the protein stability index reads like this: under setting [1], 2.56 ± 0.37; under setting [2], 3.02 ± 0.2.

GSGAPSPLSKSSPATTVTSPNSTP [SNAP91] displayed a protein stability index under setting [1] of 5.44 ± 0.16 and a protein stability index under setting [2] of 5.4 ± 0.16.

For GSGLSSRFEEPKGPPARQEDSKEL [CBY2], the protein stability index reads like this: under setting [1], 5.35 ± 0.27; under setting [2], 5.5 ± 0.25. With GTDSAGPKTVPSHVFSELWDLSEA [ELOA2], the protein stability index runs as follows: under setting [1], 3.95 ± 0.25; under setting [2], 4.39 ± 0.38.

For GTPMGTFAPLWEVFRVSSDKLALC [FCHO1], the protein stability index reads like this: under setting [1], 2.23 ± 0.63; under setting [2], 2.17 ± 0.41. For GVIRMWADEGSRNSRFQMLFTSFQ [NETO1] the same measures were 2.34 ± 0.4 and 2.27 ± 0.28.

For GVKFVGLFIILQVGLNTIADLWYL [POMT2], the protein stability index by setting is: under setting [1], 3.52 ± 0.1; under setting [2], 2.9 ± 1.2.

The sequence GVSREEIEREVNILREIRHPNIIT [DAPK3] came in with a protein stability index under setting [1] of 2.38 ± 0.42.

For the sequence GYKEFFMKCQSYCEPPSYRPMHHE [CDC25A], the protein stability index by setting is: under setting [1], 2.49 ± 0.15; under setting [2], 2.42 ± 0.34. For GYRVSAALEEADKMFLRTREPALD [EID1] the same measures were 3.9 ± 0.27 and 3.89 ± 0.3.

Regarding HDAQVRLYKEELEQTYHAKLENAR [LMNB1], the protein stability index is, setting by setting: under setting [1], 3.99 ± 0.34; under setting [2], 4.13 ± 0.14. The corresponding values for HDTKDQSPSRAPGLRQRASNKVQD [HMOX1] are 5.58 ± 0.24 and 5.29 ± 0.14.

In the case of HEPPFHLDREIRLQRLSHSGSRVR [SCNN1D], the protein stability index came out at 4.27 ± 0.13 under setting [1] and 4.31 ± 0.21 under setting [2]. The corresponding values for HESSGNPPLRVIVKDALFCSCLSD [RHOBTB3] are 3.11 ± 0.25 and 3.24 ± 0.12.

For the origin of these results see the supplement of paper PMC10567573.
